As usually defined, the EC50 is the concentration needed to bring the measured effect to its halfway point. The low end stands for an effect from little substance, the high end for a need for much substance.

The target of assay [1] is T1, A138 iCAPS (CB1 with ICL3 native sequence replaced with protein 1 sequence) (human, UniProt P21554 99-414).
T1 construct: The insert stands inside the chain in place of ICL3
Nature of the assay: ELISA, purified IgG on A138 CB1 iCAPS. On the procedure:
(§1) Purified IgG was tested for binding to purified CB1 receptor (CB1 Conformation Antigen Presenting System (iCAPS)) by ELISA. Non-biotinylated antigens (e.g. empty iCAPS) were coated directly on Maxisorp plates. The primary antibodies were purified IgGs with 1:3 serial dilutions, incubated on the plate for 1 hour. After 3 rounds of washing with PBST, secondary antibodies HRP goat anti-mouse IgG (Abmart) or HRP goat anti-human IgG (Sigma), depending on the species of the IgGs were added and incubated for another hour. The plates were washed three times with PBST, then developed with TMB (Biopanda). HCl was added to the plates to stop the reaction. Absorbance at 450 nm was read on Emax precision microplate reader (Molecular Devices).
For orientation: ELISA stands for enzyme-linked immunosorbent assay.

Assay [2] addresses T2, A139 iCAPS (CB1 with ICL3 native sequence replaced with BRIL) (human, UniProt P21554 99-414).
T2 construct: The insert stands inside the chain in place of ICL3
Kind of assay: ELISA, purified IgG on A139 CB1 iCAPS. As to the method:
as §1

T2 sequence (P21554 whole entry): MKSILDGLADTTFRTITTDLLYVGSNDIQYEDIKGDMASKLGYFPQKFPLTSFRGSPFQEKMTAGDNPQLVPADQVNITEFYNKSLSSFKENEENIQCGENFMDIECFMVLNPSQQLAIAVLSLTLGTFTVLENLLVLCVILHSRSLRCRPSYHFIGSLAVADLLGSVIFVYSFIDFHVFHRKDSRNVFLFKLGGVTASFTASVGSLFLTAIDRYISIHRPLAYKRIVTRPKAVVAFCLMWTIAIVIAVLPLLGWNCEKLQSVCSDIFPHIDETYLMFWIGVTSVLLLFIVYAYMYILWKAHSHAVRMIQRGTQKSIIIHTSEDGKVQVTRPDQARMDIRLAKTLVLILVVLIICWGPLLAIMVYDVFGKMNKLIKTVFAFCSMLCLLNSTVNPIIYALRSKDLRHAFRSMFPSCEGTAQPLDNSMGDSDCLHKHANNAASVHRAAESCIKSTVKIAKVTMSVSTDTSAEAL
T1 sequence (P21554 whole entry): as above

B1: PA2LR3-P3B10 (chimeric) (antibody, V domains shown)
VH: EVQLQQSGAELVRPGSSVKISCKASGYAFSYYWMNWVKQRPGQGLEWIGQIYPGDGDTNYNGKFKGKATLTADKSSSTAYMQLSSLTSEDSAVYFCARSHGNYFPYWGQGTLVTVSA
VL: DIVITQSPAIVSASLGERVTMTCTASSSVSSSYLHWYQQKPGSSPKLWIYSTSNLASGVPARFSGSGSGTSYSLTISSMEAEDAATYYCQQWSSYPLTFGAGTKLEIKR
With B1, the EC50 worked out at 1.4 nM in assay [1] and 0.78 nM in assay [2].

B2: PA2LR3-P4C6 (chimeric) (antibody, V domains shown)
VH: EVQLQQSGAELVRPGSSVKISCKASGYAFSYYWMNWVKQRPGQGLEWIGQIYPGDGDTNYNGKFKGKATLTADKSSSTAYMQLSSLTSEDSAVYFCARSHGNYFPYWGQGTLVTVSA
VL: DIVITQSPAIVSASLGERVTMTCTASSSVSSSYLHWYQQKPGSSPKLWIYSTSNLASGVPARFSGSGSGTSYSLTISSMEAEDAATYYCQQWSSYPLTFGAGTKLEIKR
As to B2, the EC50 in assay [1] and in assay [2] was 0.4 nM throughout.

B3: PA2LR3-P2B8 (chimeric) (antibody, V domains shown)
VH: EVQLQQSGAELVRPGSSVKISCKASGYAFSYYWMNWVKQRPGQGLEWIGQIYPGDGDTNYNGKFKGKATLTADKSSSTAYMQLSSLTSEDSAVYFCARSHGNYFAYWGQGTLVTVSA
VL: DIVMTQSPAIMSASLGERVTMTCTASSSISSSYLHWYQQKPGSSPKLWIYSTSNLASGVPARFSGSGSGTSYSLTISSMEAEDAATYYCHQYHRSPLAFGAGTKLELKR
For the molecule B3, the EC50 in assay [1] amounted to 6.7 nM; in assay [2] it was 1.8 nM.

B4: PA2LR3-P3B8 (chimeric) (antibody, V domains shown)
VH: EVQLQQSGAELVRPGSSVKISCKASGFAFSNYWMNWVKQRPGQGLEWIGQIYPGDGDTNFNGKFKGRAILTADISSNTAYMQLSSLTSEDSAVYFCARSHGNYFPYWGQGTLVTVSA
VL: DIVMTQSPAIMSASLGERVTMTCTASSSVSSSYLHWYQQKPGSSPKLWIYGTSNLASGVPVRFSGSGSGTSYSLTISSMEAEDAATYYCQQWSSYPLTFGAGTKLELKR
As to B4, in assay [1], the EC50 came to 71 nM.

B5: PA2LR3-P1G6 (chimeric) (antibody, V domains shown)
VH: EVQLQQSGAELVRPGSSVKISCKASGYAFSYYWMNWVKQRPGQGLEWIGQIYPGDGDTNYNGKFKGKATLTVDKSSSTAYMQLSSLTSEDSAVYFCARSHGNYFAYWGQGTLVTVSA
VL: DIVLSQSPAIMSASLGERVTMTCTASSSVSSSYLHWYQQKPGSSPKLWIYSTSNLASGVPARFSGSGSGTSYSLTISRMEAEDAATYYCQQWSSYPLTFGAGTKLELKR
For B5, the EC50 came out at 81 nM in assay [1] and 35 nM in assay [2].

B6: PA2LR3-P4G10 (chimeric) (antibody, V domains shown)
VH: EVQLQQFGAELVRPGSSVKISCKASGYAFSYYWMNWVKQRPGQGLEWIGQIYPGDGDTNYNGKFKGKATLTADKSSSTAYMQLSSLTSEDSAVYFCARSHGNYFAYWGQGTLVTVSA
VL: DIVLTQSPAIMSASLGERVTMTCTASSSVSSSYLHWYQQKPGSSPKLWIYSTSNLASGVPARFSGSGSGTSYSLTISSMEAEDAATYYCQQWSSNPLTFGAGTKLELKR
With B6, the EC50 in assay [1] was determined as 1.19 nM; in assay [2], 1.35 nM.

B7: PA2LR3-P1H4 (chimeric) (antibody, V domains shown)
VH: EVQLQQSGAELVRPGSSVKISCKASGYVFGNYWMNWVKQRPGQGLEWIGQIYPGDGDTNYNGKFKGKATLTADKSSSTAYMQLSSLTSEDSAVYFCARSHGNYFPYWGQGTLVTVSA
VL: QIVLTQSPAIMSASLGERVTMTCTASSSVSSSYLHWYQQKPGSSPKLWIYSTSNLASGVPARFSGSGSGTSYSLTISSMEAEDAATYYCQQWSSYPLTFGAGTKLELKR
With B7, the EC50 in assay [1] stood at 21 nM; in assay [2], 33.5 nM.

B8: PA2LR3-P2E5 (chimeric) (antibody, V domains shown)
VH: EVQLQQSGAELVRPGSSVKISCKASGYAFRDYWMNWVKQRPGQGLEWIGQIYPGDGATNYIGKFKGKATLTADKSSSTAYMQLSSLTSEDSAVYFCARSHGNYFPYWGHGTLVTVSA
VL: QIVLTQSPAIMSASLGERVTMTCTASSSVSSSYLHWYQQKPGSSPKLWIYSTSNLASGVPARFSGSGSGTSYSLTISSMEAEDAATYYCQQWSSYPLTFGAGTKLELKR
For B8, the results for the EC50 in assay [1] and in assay [2] were 10 nM and 3.2 nM, respectively.

(Values after patent US20260176352A1 (BIRD ROCK BIO, published 2026).)
